Test results from PMC9638875 (EMBO Reports, 2022).

Target: the molecule itself
Assay: SEC

B1: His6-eVP40 (Ebola virus matrix protein VP40) (natural protein)
chain: MRRVILPTAPPEYMEAIYPVRSNSTIARGGNSNTGFLTPESVNGDTPSNPLRPIADDTIDHASHTPGSVSSAFILEAMVNVISGPKVLMKQIPIWLPLGVADQKTYSFDSTTAAIMLASYTITHFGKATNPLVRVNRLGPGIPDHPLRLLRIGNQAFLQEFVLPPVQLPQYFTFDLTALKLITQPLPAATWTDDTPTGSNGALRPGISFHPKLRPILLPNKSGKKGNSADLTSPEKIQAIMTSLQDFKIVPIDPTKNIMGIEVPETLVHKLTGKKVTSKNGQPIIPVLLPKYIGLDPVAPGDLTMVITQDCDTCHSPASLPAVIEK
stoichiometry N: 2
